Laboratory results as given in patent US20030175364A1, “Process for binding carotenoids to proteins and the products thereof” (priority 2002, published 2003).
Blank lines part the entries; values can stand above or below the molecule they belong to.

Assay: Binding of lutein to selected proteins at ng scale (hexane extraction, absorbance at 280 and 446 nm)
Experimental: The carotenoid used in this Example 3 was lutein in dry cake form (Kemin Foods, L.C., Des Moines, Iowa). The cake was dissolved in THF at a concentration of approximately 5.28 mM (3 mg lutein in 1 ml THF). Four hundred nanograms of a selected protein (bovine and chicken albumin, gamma-globulins, Kunitz inhibitor, Bowman-Birk inhibitor, whey, and soy protein isolates 873 and 891 from Archer Daniels Midland, DeKalb, Ill.) were added to 200 μl Tris buffer (1.74 g Trizma crystals and 0.42 g calcium chloride added to 250 ml de-ionized H2O, pH 8.74) together with 2 μl of the lutein/THF solution. These reaction solutions were prepared in microcentrifuge tubes (1.5 ml), mixed, and allowed to react at 4° C., overnight, and in the dark. In addition, all reactions were performed in the presence of an alternative metal ion selected from the group Mg^++, Mn^++, Fe^+++, K^+, and Ca^++(MgCl2 6H2O, MnCl24H2O, FeCl3 6H2O, KCl, and CaCl2) at 60 μM concentration.
The hexane wash, vortex and centrifuge procedure was repeated six times. The supernatant was extracted and combined from all six washes and used later to compare absorbance vs. aqueous phase.
Protein and lutein content in the protein solutions and solvents used for extraction were determined by measuring the absorbance at 280 and 446 nm using a spectrophotometer.
The results are compiled and are reported in weight:weight or mol:mol (when available) ratios.

Lutein/Protein Ratio mol/mol (Ca^2+ 60 μM): 506 mol/mol
Lutein/Protein Ratio w/w (Ca^2+ 60 μM): 4.29 w/w
Lutein/Protein Ratio mol/mol (Fe^3+ 60 μM): 365 mol/mol
Lutein/Protein Ratio w/w (Fe^3+ 60 μM): 3.1 w/w
Lutein/Protein Ratio mol/mol (K^+ 60 μM): 383 mol/mol
Lutein/Protein Ratio w/w (K^+ 60 μM): 3.24 w/w
Lutein/Protein Ratio mol/mol (Mg^+ 60 μM): 294 mol/mol
Lutein/Protein Ratio w/w (Mg^+ 60 μM): 2.49 w/w
Lutein/Protein Ratio mol/mol (w/o metal ions): 306 mol/mol
Lutein/Protein Ratio w/w (w/o metal ions): 2.59 w/w
Molecule: Bovine Serum Albumin: bovine albumin

Lutein/Protein Ratio mol/mol (Ca^2+ 60 μM): 67 mol/mol
Lutein/Protein Ratio w/w (Ca^2+ 60 μM): 0.84 w/w
Lutein/Protein Ratio mol/mol (Fe^3+ 60 μM): 71 mol/mol
Lutein/Protein Ratio w/w (Fe^3+ 60 μM): 0.9 w/w
Lutein/Protein Ratio mol/mol (K^+ 60 μM): 95 mol/mol
Lutein/Protein Ratio w/w (K^+ 60 μM): 1.2 w/w
Lutein/Protein Ratio mol/mol (Mg^+ 60 μM): 116? mol/mol
Lutein/Protein Ratio w/w (Mg^+ 60 μM): 1.16 w/w
Lutein/Protein Ratio mol/mol (w/o metal ions): 105 mol/mol
Lutein/Protein Ratio w/w (w/o metal ions): 1.33 w/w
B1: Chicken Serum Albumin: chicken albumin (protein, UniProt P19121 24-615, looked up)
Albumin: FARDAEHKSEIAHRYNDLKEETFKAVAMITFAQYLQRCSYEGLSKLVKDVVDLAQKCVANEDAPECSKPLPSIILDEICQVEKLRDSYGAMADCCSKADPERNECFLSFKVSQPDFVQPYQRPASDVICQEYQDNRVSFLGHFIYSVARRHPFLYAPAILSFAVDFEHALQSCCKESDVGACLDTKEIVMREKAKGVSVKQQYFCGILKQFGDRVFQARQLIYLSQKYPKAPFSEVSKFVHDSIGVHKECCEGDMVECMDDMARMMSNLCSQQDVFSGKIKDCCEKPIVERSQCIMEAEFDEKPADLPSLVEKYIEDKEVCKSFEAGHDAFMAEFVYEYSRRHPEFSIQLIMRIAKGYESLLEKCCKTDNPAECYANAQEQLNQHIKETQDVVKTNCDLLHDHGEADFLKSILIRYTKKMPQVPTDLLLETGKKMTTIGTKCCQLGEDRRMACSEGYLSIVIHDTCRKQETTPINDNVSQCCSQLYANRRPCFTAMGVDTKYVPPPFNPDMFSFDEKLCSAPAEEREVGQMKLLINLIKRKPQMTEEQIKTIADGFTAMVDKCCKQSDINTCFGEEGANLIVQSRATLGIGA

Lutein/Protein Ratio mol/mol (Ca^2+ 60 μM): 31 mol/mol
Lutein/Protein Ratio w/w (Ca^2+ 60 μM): 0.78 w/w
Lutein/Protein Ratio mol/mol (Fe^3+ 60 μM): 29 mol/mol
Lutein/Protein Ratio w/w (Fe^3+ 60 μM): 0.74 w/w
Lutein/Protein Ratio mol/mol (K^+ 60 μM): 24 mol/mol
Lutein/Protein Ratio w/w (K^+ 60 μM): 0.6 w/w
Lutein/Protein Ratio mol/mol (Mg^+ 60 μM): 29 mol/mol
Lutein/Protein Ratio w/w (Mg^+ 60 μM): 0.74 w/w
Lutein/Protein Ratio mol/mol (w/o metal ions): 46 mol/mol
Lutein/Protein Ratio w/w (w/o metal ions): 1.17 w/w
B2: Kunitz: soybean Kunitz proteinase inhibitor (protein, UniProt P01070 25-205, looked up)
Trypsin inhibitor A: DFVLDNEGNPLENGGTYYILSDITAFGGIRAAPTGNERCPLTVVQSRNELDKGIGTIISSPYRIRFIAEGHPLSLKFDSFAVIMLCVGIPTEWSVVEDLPEGPAVKIGENKDAMDGWFRLERVSDDEFNNYKLVFCPQQAEDDKCGDIGISIDHDDGTRRLVVSKNKPLVVQFQKLDKESL
